Data reported in paper PMC3419730, “NRFL-1, the C. elegans NHERF Orthologue, Interacts with Amino Acid Transporter 6 (AAT-6) for Age-Dependent Maintenance of AAT-6 on the Membrane” (PLoS ONE, 2012).

Assays:
[1] = target: T1, 3×FLAG-NRFL-1 (wild type) (C. elegans, UniProt G5EDM4 1-467); assay: pull-down; GST pull-down: 2 µg GST fusion protein and 5 µg recombinant 3×FLAG-NRFL-1, overnight at 4°C in 50 mM Tris pH 7.4, 150 mM NaCl, 5 mM EDTA, 0.1% NP-40; blot with anti-FLAG; conditions: both partners purified
T1 construct: NRFL-1 (C01F6.6a), C. elegans, full-length wild type; cDNA first ligated into p3×FLAG-myc-CMV-24, then the 3×FLAG-NRFL-1 fragment moved into pGEX-6P-1; also called recombinant NRFL-1 wild-type; not shown: GST, N-terminal, cleaved; 3×FLAG, N-terminal, kept
T1 sequence (looked up): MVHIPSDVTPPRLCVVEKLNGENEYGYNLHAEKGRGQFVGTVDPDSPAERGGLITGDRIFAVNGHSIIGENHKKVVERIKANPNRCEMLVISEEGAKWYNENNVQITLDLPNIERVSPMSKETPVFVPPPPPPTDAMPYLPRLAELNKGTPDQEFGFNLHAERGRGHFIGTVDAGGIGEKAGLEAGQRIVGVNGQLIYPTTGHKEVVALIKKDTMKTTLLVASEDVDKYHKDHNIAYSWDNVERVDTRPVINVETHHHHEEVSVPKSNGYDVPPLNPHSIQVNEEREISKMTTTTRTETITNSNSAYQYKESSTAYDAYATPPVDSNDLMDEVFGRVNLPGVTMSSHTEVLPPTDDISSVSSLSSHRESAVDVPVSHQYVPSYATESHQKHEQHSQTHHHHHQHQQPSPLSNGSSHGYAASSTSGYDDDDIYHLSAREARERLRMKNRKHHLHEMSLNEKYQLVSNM

[2] = target: T2, 3×FLAG-NRFL-1 with PDZ I mutated (G26A/Y27A) (C. elegans, UniProt G5EDM4 1-467, G26A | Y27A); assay: as above; conditions: both partners purified
T2 construct: not shown: GST, N-terminal, cleaved; 3×FLAG, N-terminal, kept
T2 sequence (looked up): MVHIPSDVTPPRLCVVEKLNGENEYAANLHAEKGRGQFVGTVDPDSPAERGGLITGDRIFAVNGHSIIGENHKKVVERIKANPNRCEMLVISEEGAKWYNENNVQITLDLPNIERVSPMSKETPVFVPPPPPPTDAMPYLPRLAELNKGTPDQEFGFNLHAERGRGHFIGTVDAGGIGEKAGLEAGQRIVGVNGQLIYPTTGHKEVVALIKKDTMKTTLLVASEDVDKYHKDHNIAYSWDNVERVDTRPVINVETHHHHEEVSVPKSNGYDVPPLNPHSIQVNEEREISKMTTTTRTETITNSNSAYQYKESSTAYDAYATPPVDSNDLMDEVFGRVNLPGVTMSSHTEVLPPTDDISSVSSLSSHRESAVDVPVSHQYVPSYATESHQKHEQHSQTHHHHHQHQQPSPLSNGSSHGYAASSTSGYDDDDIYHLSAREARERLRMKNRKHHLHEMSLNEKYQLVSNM

B1: GST fusion of AAT-6 C-terminus tail corresponding to residues 487–523 (domain or fragment, C. elegans, UniProt Q22397 487-523, looked up)
chain: GDEEMKNAIGGAESESEKVPAYKISPTGNGQFKCTRM
notes: also called GST-AAT-6; source: E. coli BL21 (DE3), purified (Glutathione Sepharose 4B); not shown: GST, N-terminal, kept
binding result [1]: binds
binding result [2]: binds
